B1: Complement factor H-related protein 1 (Homo sapiens), Q03591 (parent)
chain: MWLLVSVILISRISSVGGEATFCDFPKINHGILYDEEKYKPFSQVPTGEVFYYSCEYNFVSPSKSFWTRITCTEEGWSPTPKCLRLCFFPFVENGHSESSGQTHLEGDTVQIICNTGYRLQNNENNISCVERGWSTPPKCRSTDTSCVNPPTVQNAHILSRQMSKYPSGERVRYECRSPYEMFGDEEVMCLNGNWTEPPQCKDSTGKCGPPPPIDNGDITSFPLSVYAPASSVEYQCQNLYQLEGNKRITCRNGQWSEPPKCLHPCVISREIMENYNIALRWTAKQKLYLRTGESAEFVCKRGYRLSSRSHTLRTTCWDGKLEYPTCAKR
B2: Complement factor H-related protein 1 (Homo sapiens), Q03591 (parent)
chain: B1 chain
partner: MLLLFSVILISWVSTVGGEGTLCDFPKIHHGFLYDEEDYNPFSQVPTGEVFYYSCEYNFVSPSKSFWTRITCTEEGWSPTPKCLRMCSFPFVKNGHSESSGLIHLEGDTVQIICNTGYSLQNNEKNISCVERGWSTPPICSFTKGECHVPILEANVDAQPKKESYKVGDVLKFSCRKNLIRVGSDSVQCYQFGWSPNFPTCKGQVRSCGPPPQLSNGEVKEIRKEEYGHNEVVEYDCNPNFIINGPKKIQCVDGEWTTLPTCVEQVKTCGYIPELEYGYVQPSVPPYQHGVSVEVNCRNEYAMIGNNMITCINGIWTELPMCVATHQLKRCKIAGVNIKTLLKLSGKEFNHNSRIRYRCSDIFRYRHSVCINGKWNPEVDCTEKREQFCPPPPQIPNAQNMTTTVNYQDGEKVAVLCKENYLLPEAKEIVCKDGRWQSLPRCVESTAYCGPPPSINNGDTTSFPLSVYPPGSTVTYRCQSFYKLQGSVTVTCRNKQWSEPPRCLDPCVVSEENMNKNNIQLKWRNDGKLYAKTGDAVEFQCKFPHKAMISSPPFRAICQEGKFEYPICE

Variants of: B1
Conditions: with fhr2_human CFHR2, P36980

Variant | effect of a mutation on the interaction
H157Y;L159V;E175Q | with no effect

Variants of: B2
Conditions: with fhr5_human CFHR5, Q9BXR6

Variant | effect of a mutation on the interaction
H157Y;L159V;E175Q | with no effect

Source: IntAct's records for PubMed 23728178
